The results in this text go back to patent US20050265970A1 (UNIVERSITY OF CHICAGO, published 2005).

Assay [1] deals with T1, HA-MEKK4 (full-length murine, in 293 cells) (murine, UniProt O08648 1-1597, limits assumed).
T1 construct: also called MEKK4/MTK1; not shown: HA tag
Nature of the assay: co-IP from 293 cells.

Assay [2] concerns the target T2, HA-GCK (full-length human, in 293 cells) (human, UniProt Q12851 1-820).
T2 construct: not shown: HA tag
T2 sequence (looked up): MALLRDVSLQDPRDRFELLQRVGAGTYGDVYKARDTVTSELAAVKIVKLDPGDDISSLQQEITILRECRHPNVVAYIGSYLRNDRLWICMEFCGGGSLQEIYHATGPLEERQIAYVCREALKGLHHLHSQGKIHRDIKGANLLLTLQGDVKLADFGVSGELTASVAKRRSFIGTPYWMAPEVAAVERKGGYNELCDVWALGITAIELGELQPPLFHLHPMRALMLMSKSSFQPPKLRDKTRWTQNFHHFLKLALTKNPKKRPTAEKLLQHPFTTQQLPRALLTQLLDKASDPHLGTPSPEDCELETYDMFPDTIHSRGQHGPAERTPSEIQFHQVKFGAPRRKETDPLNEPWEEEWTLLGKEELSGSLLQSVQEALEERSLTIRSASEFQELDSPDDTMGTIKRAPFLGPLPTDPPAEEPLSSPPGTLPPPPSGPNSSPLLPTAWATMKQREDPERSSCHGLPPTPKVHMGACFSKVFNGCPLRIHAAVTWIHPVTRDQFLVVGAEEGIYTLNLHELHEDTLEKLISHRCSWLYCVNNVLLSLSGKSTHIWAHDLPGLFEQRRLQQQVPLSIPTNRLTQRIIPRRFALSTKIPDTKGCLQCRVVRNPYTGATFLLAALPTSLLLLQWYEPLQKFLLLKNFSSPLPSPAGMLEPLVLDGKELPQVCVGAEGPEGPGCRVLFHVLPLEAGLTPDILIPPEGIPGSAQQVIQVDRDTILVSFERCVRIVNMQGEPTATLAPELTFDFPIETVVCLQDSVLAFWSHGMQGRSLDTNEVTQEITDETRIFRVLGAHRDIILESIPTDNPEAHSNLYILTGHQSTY
The experiment in a line: combined immunoprecipitation and Western blot, 293 cells.

Assay [3] has as its target T3, HA-GCKR (full-length human, in 293 cells) (human, UniProt Q9Y4K4 1-846).
T3 construct: not shown: HA tag
The assay is described as above.

The target in assay [4] is T4, HA-MEKK1 (full-length human, in 293 cells) (human, UniProt Q13233 1-1512, limits assumed).
T4 construct: not shown: HA tag
T4 sequence (Q13233 whole entry): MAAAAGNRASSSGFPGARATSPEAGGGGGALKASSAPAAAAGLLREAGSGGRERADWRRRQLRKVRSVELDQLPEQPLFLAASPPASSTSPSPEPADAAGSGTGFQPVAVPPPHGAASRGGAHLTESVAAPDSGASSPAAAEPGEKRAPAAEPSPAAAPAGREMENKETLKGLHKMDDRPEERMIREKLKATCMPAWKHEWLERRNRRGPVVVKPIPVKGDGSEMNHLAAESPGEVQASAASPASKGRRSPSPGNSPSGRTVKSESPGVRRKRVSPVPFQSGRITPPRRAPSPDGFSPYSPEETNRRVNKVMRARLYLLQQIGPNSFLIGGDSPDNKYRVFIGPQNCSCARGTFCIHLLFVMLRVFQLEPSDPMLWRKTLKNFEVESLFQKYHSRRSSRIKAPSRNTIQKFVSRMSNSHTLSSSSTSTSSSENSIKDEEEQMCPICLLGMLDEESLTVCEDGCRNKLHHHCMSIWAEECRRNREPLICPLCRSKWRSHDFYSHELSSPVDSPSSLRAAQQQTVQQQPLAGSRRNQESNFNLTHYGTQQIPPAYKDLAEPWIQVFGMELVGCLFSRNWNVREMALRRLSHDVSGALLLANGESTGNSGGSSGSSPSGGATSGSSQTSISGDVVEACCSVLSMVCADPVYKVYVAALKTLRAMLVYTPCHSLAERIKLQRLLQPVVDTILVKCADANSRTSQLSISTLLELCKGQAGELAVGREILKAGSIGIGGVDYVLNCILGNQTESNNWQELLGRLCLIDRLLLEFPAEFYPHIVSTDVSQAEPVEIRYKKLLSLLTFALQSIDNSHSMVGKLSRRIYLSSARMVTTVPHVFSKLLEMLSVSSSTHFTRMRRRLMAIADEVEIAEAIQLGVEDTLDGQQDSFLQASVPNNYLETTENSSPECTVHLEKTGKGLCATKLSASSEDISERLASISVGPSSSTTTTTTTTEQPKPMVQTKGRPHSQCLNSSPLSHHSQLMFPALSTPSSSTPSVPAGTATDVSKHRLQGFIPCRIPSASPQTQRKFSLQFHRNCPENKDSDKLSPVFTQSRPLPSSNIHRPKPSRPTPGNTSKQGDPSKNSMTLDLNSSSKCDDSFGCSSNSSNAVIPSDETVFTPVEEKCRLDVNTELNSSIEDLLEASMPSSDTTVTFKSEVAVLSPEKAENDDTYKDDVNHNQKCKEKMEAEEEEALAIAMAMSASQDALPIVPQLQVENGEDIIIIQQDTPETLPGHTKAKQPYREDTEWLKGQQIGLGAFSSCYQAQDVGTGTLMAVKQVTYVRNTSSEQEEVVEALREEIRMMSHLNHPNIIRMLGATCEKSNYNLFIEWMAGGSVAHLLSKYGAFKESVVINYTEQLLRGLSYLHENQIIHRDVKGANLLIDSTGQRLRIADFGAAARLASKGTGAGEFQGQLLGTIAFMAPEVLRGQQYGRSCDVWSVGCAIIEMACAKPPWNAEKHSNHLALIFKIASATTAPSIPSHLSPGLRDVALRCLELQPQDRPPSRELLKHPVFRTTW
Nature of the assay: co-IP from 293 cells, anti-FLAG beads, anti-HA Western blot. A general note: Immunoblotting shows a protein as a band on a membrane.

Assay [5] deals with T5, HA-MEKK3 (full-length human, in 293 cells) (human, UniProt Q99759 1-626, limits assumed).
T5 construct: not shown: HA tag
T5 sequence (looked up): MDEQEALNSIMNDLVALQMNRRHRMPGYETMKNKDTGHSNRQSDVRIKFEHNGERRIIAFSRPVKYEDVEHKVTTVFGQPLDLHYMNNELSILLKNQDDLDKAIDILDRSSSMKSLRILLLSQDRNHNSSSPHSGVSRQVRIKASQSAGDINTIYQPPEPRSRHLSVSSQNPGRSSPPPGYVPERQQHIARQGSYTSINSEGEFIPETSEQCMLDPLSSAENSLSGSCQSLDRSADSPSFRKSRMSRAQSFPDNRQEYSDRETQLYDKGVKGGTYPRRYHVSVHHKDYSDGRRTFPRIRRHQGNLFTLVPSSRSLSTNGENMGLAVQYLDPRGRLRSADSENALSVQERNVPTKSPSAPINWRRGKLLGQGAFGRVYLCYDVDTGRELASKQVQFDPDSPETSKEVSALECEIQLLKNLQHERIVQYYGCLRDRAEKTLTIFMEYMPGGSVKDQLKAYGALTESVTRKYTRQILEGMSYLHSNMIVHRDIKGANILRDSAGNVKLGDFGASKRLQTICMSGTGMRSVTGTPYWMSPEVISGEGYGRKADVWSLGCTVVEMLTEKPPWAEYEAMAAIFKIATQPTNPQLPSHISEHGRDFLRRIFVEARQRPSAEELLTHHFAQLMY
The description is as above.

Assay [6] addresses T6, HA-ASK1 (full-length human, in 293 cells) (human, UniProt Q99683 1-1374).
T6 construct: not shown: HA tag
T6 sequence (looked up): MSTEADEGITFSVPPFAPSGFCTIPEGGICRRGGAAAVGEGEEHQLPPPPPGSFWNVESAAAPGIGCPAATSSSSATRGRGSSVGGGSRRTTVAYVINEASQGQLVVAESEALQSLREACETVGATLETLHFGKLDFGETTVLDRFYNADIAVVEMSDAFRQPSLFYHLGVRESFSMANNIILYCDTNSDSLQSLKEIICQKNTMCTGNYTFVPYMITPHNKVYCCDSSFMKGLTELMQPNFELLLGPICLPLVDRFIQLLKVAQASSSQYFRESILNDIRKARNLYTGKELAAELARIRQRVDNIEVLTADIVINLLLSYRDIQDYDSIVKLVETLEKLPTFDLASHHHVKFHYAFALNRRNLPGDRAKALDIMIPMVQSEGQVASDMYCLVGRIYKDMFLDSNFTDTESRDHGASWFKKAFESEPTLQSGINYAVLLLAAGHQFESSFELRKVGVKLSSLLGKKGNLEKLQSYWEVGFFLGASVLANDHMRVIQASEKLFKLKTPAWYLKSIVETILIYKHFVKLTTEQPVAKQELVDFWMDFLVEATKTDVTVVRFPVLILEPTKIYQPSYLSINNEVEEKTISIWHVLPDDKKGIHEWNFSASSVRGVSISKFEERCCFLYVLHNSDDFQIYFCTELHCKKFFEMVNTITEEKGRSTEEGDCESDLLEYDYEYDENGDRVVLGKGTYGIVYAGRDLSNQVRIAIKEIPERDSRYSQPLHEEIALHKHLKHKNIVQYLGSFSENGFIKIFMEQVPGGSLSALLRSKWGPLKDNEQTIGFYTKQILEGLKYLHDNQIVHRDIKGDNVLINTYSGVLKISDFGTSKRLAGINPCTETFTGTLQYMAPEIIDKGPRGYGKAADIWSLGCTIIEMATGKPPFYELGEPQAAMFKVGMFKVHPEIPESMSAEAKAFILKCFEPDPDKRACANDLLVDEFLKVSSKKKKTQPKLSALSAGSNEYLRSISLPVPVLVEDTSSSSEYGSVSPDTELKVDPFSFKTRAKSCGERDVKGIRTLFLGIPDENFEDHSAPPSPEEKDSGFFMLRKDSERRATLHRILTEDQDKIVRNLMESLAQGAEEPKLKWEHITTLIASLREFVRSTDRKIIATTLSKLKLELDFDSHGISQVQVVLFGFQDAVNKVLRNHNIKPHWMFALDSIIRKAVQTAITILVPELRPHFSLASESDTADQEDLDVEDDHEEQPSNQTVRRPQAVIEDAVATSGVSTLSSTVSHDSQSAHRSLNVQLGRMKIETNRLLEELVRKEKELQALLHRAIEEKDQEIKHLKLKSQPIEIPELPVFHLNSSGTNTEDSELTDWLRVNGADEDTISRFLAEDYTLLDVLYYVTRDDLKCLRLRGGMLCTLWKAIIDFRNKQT
The assay is described as above.

T1 sequence (O08648 whole entry): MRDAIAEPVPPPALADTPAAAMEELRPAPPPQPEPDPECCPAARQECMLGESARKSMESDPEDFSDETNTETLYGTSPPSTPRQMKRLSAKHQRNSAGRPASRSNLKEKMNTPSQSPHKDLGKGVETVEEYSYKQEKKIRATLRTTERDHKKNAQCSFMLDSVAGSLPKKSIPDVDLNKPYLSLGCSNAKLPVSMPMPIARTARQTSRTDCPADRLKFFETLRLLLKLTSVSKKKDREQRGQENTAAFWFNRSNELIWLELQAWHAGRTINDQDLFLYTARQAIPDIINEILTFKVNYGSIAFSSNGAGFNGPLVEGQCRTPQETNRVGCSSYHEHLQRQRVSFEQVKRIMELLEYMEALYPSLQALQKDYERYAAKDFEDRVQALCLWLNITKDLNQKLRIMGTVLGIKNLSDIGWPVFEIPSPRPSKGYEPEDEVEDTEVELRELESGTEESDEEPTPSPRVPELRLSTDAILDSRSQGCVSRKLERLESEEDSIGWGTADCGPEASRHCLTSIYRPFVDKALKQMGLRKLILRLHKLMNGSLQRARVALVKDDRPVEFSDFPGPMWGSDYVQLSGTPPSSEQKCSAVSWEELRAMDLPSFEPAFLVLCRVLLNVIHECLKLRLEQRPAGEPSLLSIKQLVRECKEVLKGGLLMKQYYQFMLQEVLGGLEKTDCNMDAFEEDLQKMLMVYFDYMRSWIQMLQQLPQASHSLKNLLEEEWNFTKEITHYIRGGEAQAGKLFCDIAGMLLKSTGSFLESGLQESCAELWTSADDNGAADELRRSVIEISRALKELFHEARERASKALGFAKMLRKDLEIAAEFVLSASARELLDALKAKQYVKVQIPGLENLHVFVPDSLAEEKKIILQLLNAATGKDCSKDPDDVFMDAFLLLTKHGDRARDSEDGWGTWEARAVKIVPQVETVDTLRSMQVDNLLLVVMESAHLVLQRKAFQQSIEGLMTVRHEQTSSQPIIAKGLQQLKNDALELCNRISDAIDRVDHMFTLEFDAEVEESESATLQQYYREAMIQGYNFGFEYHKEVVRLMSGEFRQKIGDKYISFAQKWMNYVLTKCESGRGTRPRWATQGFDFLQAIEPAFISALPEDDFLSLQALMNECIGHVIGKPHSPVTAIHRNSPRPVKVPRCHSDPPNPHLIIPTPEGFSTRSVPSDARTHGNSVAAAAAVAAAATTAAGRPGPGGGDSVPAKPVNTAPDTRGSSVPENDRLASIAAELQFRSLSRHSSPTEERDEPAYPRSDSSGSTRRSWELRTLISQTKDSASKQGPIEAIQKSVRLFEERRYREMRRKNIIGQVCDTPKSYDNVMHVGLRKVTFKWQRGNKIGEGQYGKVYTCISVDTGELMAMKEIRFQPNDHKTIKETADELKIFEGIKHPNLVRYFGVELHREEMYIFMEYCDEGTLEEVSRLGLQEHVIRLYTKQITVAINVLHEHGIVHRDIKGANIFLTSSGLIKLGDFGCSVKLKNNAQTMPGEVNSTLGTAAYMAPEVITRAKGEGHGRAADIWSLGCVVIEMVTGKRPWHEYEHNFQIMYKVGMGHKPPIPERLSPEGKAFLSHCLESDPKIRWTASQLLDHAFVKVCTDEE
T3 sequence (Q9Y4K4 whole entry): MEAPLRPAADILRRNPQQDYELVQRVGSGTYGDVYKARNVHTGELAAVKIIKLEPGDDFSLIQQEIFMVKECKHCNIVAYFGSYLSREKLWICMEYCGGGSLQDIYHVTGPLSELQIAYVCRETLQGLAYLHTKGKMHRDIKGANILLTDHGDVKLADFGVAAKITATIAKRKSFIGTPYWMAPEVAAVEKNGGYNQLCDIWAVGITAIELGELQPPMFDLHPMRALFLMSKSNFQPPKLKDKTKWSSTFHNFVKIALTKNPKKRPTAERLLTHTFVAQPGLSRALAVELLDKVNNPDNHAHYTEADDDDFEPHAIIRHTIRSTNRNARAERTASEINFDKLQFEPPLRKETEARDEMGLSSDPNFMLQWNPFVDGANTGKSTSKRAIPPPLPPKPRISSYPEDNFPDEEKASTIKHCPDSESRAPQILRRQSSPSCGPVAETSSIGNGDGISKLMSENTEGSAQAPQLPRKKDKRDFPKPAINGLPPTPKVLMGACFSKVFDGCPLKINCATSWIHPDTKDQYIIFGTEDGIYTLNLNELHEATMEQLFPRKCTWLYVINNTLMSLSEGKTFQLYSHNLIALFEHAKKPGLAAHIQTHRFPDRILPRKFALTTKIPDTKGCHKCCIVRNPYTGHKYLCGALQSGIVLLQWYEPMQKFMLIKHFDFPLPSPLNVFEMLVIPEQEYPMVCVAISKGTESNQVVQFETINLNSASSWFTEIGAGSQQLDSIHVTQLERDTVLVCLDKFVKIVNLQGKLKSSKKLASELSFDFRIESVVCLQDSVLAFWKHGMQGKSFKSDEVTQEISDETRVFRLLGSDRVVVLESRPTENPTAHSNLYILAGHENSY

B1: FLAG-Gadd45β (full-length murine Gadd45β, pcDNA-FLAG-Gadd45β, expressed in 293 cells) (other, UniProt P22339 1-160, looked up)
chain: MTLEELVASDNAVQKMQAVTAAVEQLLVAAQRQDRLTVGVYEAAKLMNVDPDSVVLCLLAIDEEEEDDIALQIHFTLIQSFCCDNDIDIVRVSGMQRLAQLLGEPAETLGTTEARDLHCLLVTNCHTDSWKSQGLVEVASYCEESRGNNQWVPYISLEER
notes: range 1-160; Co-expressed with HA-tagged kinases in 293 cells for co-immunoprecipitation; not shown: FLAG tag
Turning to B1, the binding result is reported as “binds” in assay [1]; “no binding” in assay [2]; “no binding” in assay [3]; “no binding” in assay [4]; “no binding” in assay [5]; “binds” in assay [6].
